Results taken from the FLAb antibody collection.

Assay: melting temperature

## ARVDOTPRTATKETGESLTINCVLTDTSYGLSSTYWYRKNPGSSNKEQISISGRYVESVNKRTKSFSLRIKDLTVADSATYICNAYIVRGVYGIIAKDVYGDGTALTVK
Circular dichroism
  Tm: 64 °C

## ARVEQTPRTATKETGESLTINCVLTGGSCSLYSTSWFRKNPGTTDWERISIGGRYVESVNKGAKSFSLRIKDLTVADSATYYCKAQSCMDSRTVVLDWYEGSGTVLTVK
Circular dichroism
  Tm: 76 °C

## AWVDQTPRTATKETGESLTINCVLTGTSCSLYSTSWFRKNPGTTDWERISIGGRYVESVNKGAKSFSLRIKDLTVADSATYYCKAQTADTWITVVIDGYDWYDGAGTALTVK
Circular dichroism
  Tm: 59 °C

## DVQLQASGGGLVQAGGSLRLSCAASGSTFSIKHHGWYRRAPGNQREWVAGINSENITNVAGAVKGRFTISRDNAKNTVYLQMNSLKVEDTAVYFCYAQDNDYRFLHRFWGQGTQVTVSLEPKTPKPQ
DSF (SYPRO)
  Tm: 52 °C

## DVQLQESGGGLVQPGGSLRLSCAASGFLFSDTYMTWARQAPGKGLEWLGGISKDGSGTLYEDSVEGRFTISRDNAKNTLYLQMNSLKSEDTALYYCSTGALLPTRPQGQGTQVTVSS
Circular dichroism
  Tm: 51.5 °C

## DVQLVESGGGSVQAGGSLRLSCAASGYIASINYLGWFRQAPGKEREGVAAVSPAGGTPYYADSVKGRFTVSLDNAENTVYLQMNSLKPEDTALYYCAAARQGWYIPLNSYGYNYWGQGTQVTVSS
DSF (SYPRO)
  Tm: 74 °C

## EVQLQASGGGLVQAGSSLRLSCAASGLTTSTLYRMGWFRQAPGKEREFVGTITWSGGSTHYPDSLKGRFTISRDDAKNTGFLQMDSLKPEDTAIYYCAARTSAGIYDPTSPPAYDSWGQGTQVTVSS
DSF (SYPRO)
  Tm: 70 °C

## EVQLQASGGGLVQPGGSLRLACVASGFTLEYSAIGWFRQAPGKEREAVSRIRNRDGRAIYADSVKDRFTISRDNAKSTVYLQMDSLKPEDTATYYCGRHIGVRSSWALPSEYDYWGQGTQYIYSS
DSF (SYPRO)
  Tm: 60 °C

## EVQLQASGGGLVQPGGSLRLSCTASGSIFSINAMGWYRQTPRKERELVAAISEGGSTKYGDSVKGRFTISRDFAKNTQMVYLQMNSLKAEDTAVYYCKAQTEGPIADWGTSQYEYWGQGTQVTVSS
DSF (SYPRO)
  Tm: 51 °C

## EVQLVESGGGLVQPGGSLRLSCAASGSTFSSSSVGWYRQAPGKGLELVSAITSGGSTNTADSVKGRFTISRDNSKNTLYLQMNSLRAEDTAVYYCNVAGRNWVPISRYSPGPYWGQGTLVTVSS
Circular dichroism
  Tm: 63.3 °C

## EVQLVESGGGLVQPGGSLRLSCAASGSTFSSSSVGWYRQAPGKQRELVSAITSGGSTNTADSVKGRFTISRDNSKNTLYLQMNSLRAEDTAVYYCNVAGRNWVPISRYSPGPYWGQGTLVTVSS
Circular dichroism
  Tm: 60.9 °C

## GPHMAQVQLVESGGRLVQAGDSLRLSCAASGRTFSTSAMAWFRQAPGREREFVAAITWTVGNTILGDSVKGRFTISRDRAKNTVDLQMDNLEPEDTAVYYCSARSRGYVLSVLRSVDSYDYWGQGTQVTVS
DSF (SYPRO)
  Tm: 53.6 °C

## KVQLVESGGGLVQAGGSLRLACTASGSAFSINTMGWYRRAPGKQRELVASITSSGSTTYADSVKGRFTISRDSAKNTVFLQMNSVKPEDTSVYYCNGEIQRTDYNFWGQGTQVTVSS
DSF (SYPRO)
  Tm: 59.6 °C
nanoDSF
  Tm: 63.5 °C

## PRVEQTPRITTKETGESLTINCVLTGTSCNLWTATWFRKNPGTTDWERIRIGGRYVESVNKGAKSFSLRIKDLTVADSATYYCKVQFNLYCGEADWYDGAGTLLTVK
Circular dichroism
  Tm: 66 °C

## QLQLVESGGGLVQAGGSLRLSCAASGRTFSSATMGWFRQAPGKEREFVAAISWSGLSRYYADSVKGRFTISRDNAENTVYLQMNSLKTEDTAVYYCAADSWGCSGLGCYDARQYDVWGQGTQVTVSS
Circular dichroism
  Tm: 98.2 °C

## QVKLEESGGGLVQAGGSLRLSCAASERTFSRYPVAWFRQAPGAEREFVAVISSTGRSTYYADSVKGRFTISRDNAKVTVYLQMNNLKREDTAVYFCAVNSKRRRLQDPNEYDYWGQGTQVTVSSGSEQKLISEEDLNHHHHHH
DSF (SYPRO)
  Tm: 81.6 °C

## QVKLEESGGGLVQAGGSLRLSCAASERTFSRYPVAWFRQAPGAEREFVAVISSTGRSTYYADSVKGRFTISRDNAKVTVYLQMNNLKREDTAVYFCAVNSKRTRLQDPNEYDYWGQGTQVTVSSGSEQKLISEEDLNHHHHHH
DSF (SYPRO)
  Tm: 81.4 °C

## QVKLEESGGGLVQAGGSLRLSCAASERTFSRYPVAWFRQAPGAEREFVAVISSTGRSTYYADSVKGRFTISRDNAKVTVYLQMNNLKREDTAVYFCAVNSQRMRLQDPNEYDYWGQGTQVTVSSGSEQKLISEEDLNHHHHHH
DSF (SYPRO)
  Tm: 77 °C

## QVKLEESGGGLVQAGGSLRLSCAASERTFSRYPVAWFRQAPGAEREFVAVISSTGTSKYYADSVKGRFTISRDNAKVTVYLQMNNLKREDTAVYFCAVNSQRTRLQDPNEYDYWGQGTQVTVSSGSEQKLISEEDLNHHHHHH
DSF (SYPRO)
  Tm: 76.9 °C

## QVKLEESGGGLVQAGGSLRLSCAASERTFSRYPVAWFRQAPGAEREFVAVISSTGTSTYYADSVKGRFTISRDNAKVTVYLQMNNLKREDTAVYFCAVNSKRKRLQDPNEYDYWGQGTQVTVSSGSEQKLISEEDLNHHHHHH
DSF (SYPRO)
  Tm: 81.5 °C

## QVKLEESGGGLVQAGGSLRLSCAASERTFSRYPVAWFRQAPGAEREFVAVISSTGTSTYYADSVKGRFTISRDNAKVTVYLQMNNLKREDTAVYFCAVNSKRMRLQDPNEYDYWGQGTQVTVSSGSEQKLISEEDLNHHHHHH
DSF (SYPRO)
  Tm: 81.3 °C

## QVKLEESGGGLVQAGGSLRLSCAASERTFSRYPVAWFRQAPGAEREFVAVISSTGTSTYYADSVKGRFTISRDNAKVTVYLQMNNLKREDTAVYFCAVNSKRRRLQDPNEYDYWGQGTQVTVSSGSEQKLISEEDLNHHHHHH
DSF (SYPRO)
  Tm: 81.9 °C

## QVKLEESGGGLVQAGGSLRLSCAASERTFSRYPVAWFRQAPGAEREFVAVISSTGTSTYYADSVKGRFTISRDNAKVTVYLQMNNLKREDTAVYFCAVNSKRTRLQDPNEYDYWGQGTQVTVSSGSEQKLISEEDLNHHHHHH
DSF (SYPRO)
  Tm: 81.4 °C

## QVKLEESGGGLVQAGGSLRLSCAASERTFSRYPVAWFRQAPGAEREFVAVISSTGTSTYYADSVKGRFTISRDNAKVTVYLQMNNLKREDTAVYFCAVNSQRKRLQDPNEYDYWGQGTQVTVSSGSEQKLISEEDLNHHHHHH
DSF (SYPRO)
  Tm: 78.5 °C

## QVKLEESGGGLVQAGGSLRLSCAASERTFSRYPVAWFRQAPGAEREFVAVISSTGTSTYYADSVKGRFTISRDNAKVTVYLQMNNLKREDTAVYFCAVNSQRMRLQDPNEYDYWGQGTQVTVSSGSEQKLISEEDLNHHHHHH
DSF (SYPRO)
  Tm: 77.4 °C

## QVKLEESGGGLVQAGGSLRLSCAASERTFSRYPVAWFRQAPGAEREFVAVISSTGTSTYYADSVKGRFTISRDNAKVTVYLQMNNLKREDTAVYFCAVNSQRRRLQDPNEYDYWGQGTQVTVSSGSEQKLISEEDLNHHHHHH
DSF (SYPRO)
  Tm: 79.1 °C

## QVKLEESGGGLVQAGGSLRLSCAASERTFSRYPVAWFRQAPGAEREFVAVISSTGTSTYYADSVKGRFTISRDNAKVTVYLQMNNLKREDTAVYFCAVNSQRTRLLDPNEYDYWGQGTQVTVSSGSEQKLISEEDLNHHHHHH
DSF (SYPRO)
  Tm: 80 °C

## QVKLEESGGGLVQAGGSLRLSCAASERTFSRYPVAWFRQAPGAEREFVAVISSTGTSTYYADSVKGRFTISRDNAKVTVYLQMNNLKREDTAVYFCAVNSQRTRLQDPREYDYWGQGTQVTVSSGSEQKLISEEDLNHHHHHH
DSF (SYPRO)
  Tm: 77.6 °C

## QVKLEESGGGLVQAGGSLRLSCAASERTFSRYPVAWFRQAPGAEREFVAVISSTGTSTYYADSVKGRFTISRDNAKVTVYLQMNNLKREDTAVYFCAVNSQRTRLQNPNEYDYWGQGTQVTVSSGSEQKLISEEDLNHHHHHH
DSF (SYPRO)
  Tm: 74.9 °C

## QVKLEESGGGLVQAGGSLRLSCAASERTFSRYPVAWFRQAPGAEREFVAVISSTGTSTYYADSVKGRFTISRDNAKVTVYLQMNNLKREDTAVYFCAVNSQRTRLQYPNEYDYWGQGTQVTVSSGSEQKLISEEDLNHHHHHH
DSF (SYPRO)
  Tm: 73.4 °C

## QVKLEESGGGLVQAGGSLRLSCAASERTFSRYPVAWFRQAPGAEREFVAVISSTGTSTYYADSVKGRFTISRDNAKVTVYLQMNNLKREDTAVYFCAVNSQRTRLWDPNEYDYWGQGTQVTVSSGSEQKLISEEDLNHHHHHH
DSF (SYPRO)
  Tm: 79.7 °C

## QVKLEESGGGLVQAGGSLRLSCAASERTFSRYPVAWFRQAPGAEREFVAVISSTGTSTYYADSVKGRFTISRDNAKVTVYLQMNNLKREDTAVYFCAVNSQRTRLYDPNEYDYWGQGTQVTVSSGSEQKLISEEDLNHHHHHH
DSF (SYPRO)
  Tm: 79 °C

## QVKLEESGGGLVQAGGSLRLSCAASERTFSRYPVAWFRQAPGAEREFVAVISSTGTSTYYADSVKGRFTISRDNAKVTVYLQMNNLKREDTAVYFCAVNSQRTWLQDPNEYDYWGQGTQVTVSSGSEQKLISEEDLNHHHHHH
DSF (SYPRO)
  Tm: 77.3 °C

## QVKLEESGGGLVQAGGSLRLSCAASERTFSRYPVAWFRQAPGAEREFVAVISSTGTSTYYADSVKGRFTISRDNAKVTVYLQMNNLKREDTAVYFCAVNSQRWRLQDPNEYDYWGQGTQVTVSSGSEQKLISEEDLNHHHHHH
DSF (SYPRO)
  Tm: 77.5 °C

## QVQLQESGGGLVQPGGSLRLSCAASGFTISTTAMSWVRQAPGKGIEWVSTIFASGETTSYADFVQGRFITSRDNTKNTLYLQLNNLKTEDTAMYFCAAADDFGGLNNRYRGQGTQVTVSS
DSF (SYPRO)
  Tm: 60.7 °C

## QVQLQESGGGSVQAGGSLKLSCAASGYIFSSCAMSWYRQAPGKERELVSSITSYGDAAYTDSAKGRFTISRDNAKNTLYLHLNNLKPEDTAVYFCAACPRNKYWGQGTQVTVSS
DSF (SYPRO)
  Tm: 68.4 °C
nanoDSF
  Tm: 63.6 °C

## QVQLQESGGGSVQAGGSLKLSCDASTYTYGGKCMGWFRQAPGKEREFVAFIESDGRTSYADSVKGRFTISQDDAKNTVYLQMNSLKPEDTSMYYCKTAAGAFCGTRSYGFWGQGTQVTVSS
DSF (SYPRO)
  Tm: 57.2 °C
nanoDSF
  Tm: 60.8 °C

## QVQLQESGGGSVQAGGSLRLPCVASGYIYSPTKMGWFRQAPGKERELVSSITRDGRPYYSDSVKGRFTISQDNAKNTVYLQMNSLKPEDTAMYYCFADVRLSAVGGIKTYWDQGTQVTVSS
DSF (SYPRO)
  Tm: 58.6 °C
nanoDSF
  Tm: 63.3 °C

## QVQLQESGGGSVQAGGSLRLSCAASGWTYSTATMGWYRQAPGKERELVSSIFSDENTYYKDSVKGRFTISRDAAKNTVYLQMNSLKPEDTAMYYCYIRPTTSLANWRWGQGTQVTVSS
DSF (SYPRO)
  Tm: 59.7 °C
nanoDSF
  Tm: 63.9 °C

## QVQLQESGGGSVQAGGSLRLSCAASGYTYTMGWFRQAPGKEREGVTIIYTGYDNIVYADSVKGRFTISRDNAKNTVYLQMNNLKPEDTAMYHCAAATRGLPRSYFDPGWYDSWGQGTQVTVSS
DSF (SYPRO)
  Tm: 62.5 °C
nanoDSF
  Tm: 70 °C

## QVQLQESGGGSVQAGGSLRLSCAVSGYTYSRNCIGWFRQAPGKEREGVAALYTGGGSTYYAASVKGRFTISQDTKNTVYLQMNSLKPEDSAMYYCAANPFGLYTCGDLRGPDFGYWGQGTQVTVSS
DSF (SYPRO)
  Tm: 71 °C

## QVQLQESGGGSVQAGGSLRLSCAVSGYTYSSYSIGWFRQAPGKEREGVAAINSGGSTNYAGSVEGRFTISQDNAKNTVSLLMNSLKPEDTATYYCAVGAFFTLRPTLYNYKGQGTQVTVSS
DSF (SYPRO)
  Tm: 48.3 °C
nanoDSF
  Tm: 53.6 °C

## QVQLQESGGGSVQAGGSLRLSCESSGMTFSVYNLGLRQAPGQECELSTITRDGSTDYADSMKGRFTISRDNAKNTMYLQMTSLKPDDTAVYYCAAGVGVVDCTEGQGTQVTVSS
DSF (SYPRO)
  Tm: 51.8 °C

## QVQLQESGGGSVQAGGSLRLSCVASEYDFNSYSSVSVGWFRQAPGKECVLVSRIGNDARTDYSDNVKGRFTISRDNAKRTAYLEMNSLKAEDTAVYYCAANQLSSAVVGTEYPCSKAAFAHWGQGTQVTVSS
DSF (SYPRO)
  Tm: 64.8 °C
nanoDSF
  Tm: 64.5 °C

## QVQLVESGGGLVQAGGSLRLSCAASGRTYTMGWFRQAPGKEREFVAAMRWSDTDYADSLKGRFTISRDNANNAMYLQMNSLGPEDTAVYYCAAGEAWLARSTHHYDYWGQGTQVTVSS
Circular dichroism
  Tm: 72.3 °C

## QVQLVESGGGLVQAGGSLRLSCAASGYAYTYIYMGWFRQAPGKEREGVAAMDSGGGGTLYADSVKGRFTISRDKGKNTVYLQMDSLKPEDTATYYCAAGGYELRDRTYGQWGQGTQVTVSSAAALEHHHHHH
Other
  Tm: 64.2 °C
